Measurements: US20170101472A1 (Regeneron, published 2017)

T1: human LAG3 expressed on HEK293 cells (human, UniProt P18627 23-525)
T1 construct: also called hLAG3; HEK293/hLAG3
T1 sequence: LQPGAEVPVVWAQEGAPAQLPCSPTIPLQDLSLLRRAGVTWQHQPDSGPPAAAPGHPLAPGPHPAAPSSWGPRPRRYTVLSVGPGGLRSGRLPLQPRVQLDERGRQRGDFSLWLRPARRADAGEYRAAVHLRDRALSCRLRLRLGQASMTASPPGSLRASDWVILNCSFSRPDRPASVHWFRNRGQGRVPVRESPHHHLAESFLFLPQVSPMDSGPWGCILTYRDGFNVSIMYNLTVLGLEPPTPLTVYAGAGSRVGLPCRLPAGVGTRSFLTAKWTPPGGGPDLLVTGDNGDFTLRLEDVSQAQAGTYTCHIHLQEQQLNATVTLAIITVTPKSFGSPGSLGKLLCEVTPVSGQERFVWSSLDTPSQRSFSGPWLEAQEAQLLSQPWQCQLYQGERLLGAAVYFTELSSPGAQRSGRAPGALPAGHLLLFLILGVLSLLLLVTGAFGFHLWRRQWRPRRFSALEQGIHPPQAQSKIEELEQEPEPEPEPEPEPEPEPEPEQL

T2: recombinant human LAG3 expressed with a C-terminal mouse IgG2a mFc tag (human)
T2 construct: Called dimeric; also called hLAG3-mFc; hLAG3 dimer
T2 chain: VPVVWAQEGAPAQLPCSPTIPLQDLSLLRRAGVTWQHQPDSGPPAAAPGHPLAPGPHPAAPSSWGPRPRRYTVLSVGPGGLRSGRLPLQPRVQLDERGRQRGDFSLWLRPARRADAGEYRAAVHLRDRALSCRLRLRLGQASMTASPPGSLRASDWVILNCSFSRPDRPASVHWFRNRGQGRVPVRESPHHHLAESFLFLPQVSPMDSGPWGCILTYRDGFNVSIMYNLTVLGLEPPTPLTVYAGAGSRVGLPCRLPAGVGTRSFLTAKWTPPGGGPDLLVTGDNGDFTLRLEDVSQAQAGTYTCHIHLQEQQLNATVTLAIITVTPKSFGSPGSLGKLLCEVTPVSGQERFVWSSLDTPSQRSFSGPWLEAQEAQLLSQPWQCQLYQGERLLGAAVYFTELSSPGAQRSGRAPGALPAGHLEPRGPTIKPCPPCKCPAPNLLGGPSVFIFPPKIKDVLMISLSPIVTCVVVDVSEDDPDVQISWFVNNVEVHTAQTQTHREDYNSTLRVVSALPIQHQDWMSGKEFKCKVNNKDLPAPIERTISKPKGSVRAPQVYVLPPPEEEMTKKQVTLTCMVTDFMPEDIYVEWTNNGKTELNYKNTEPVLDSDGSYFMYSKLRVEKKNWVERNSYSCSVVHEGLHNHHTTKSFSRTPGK


Key:
[1] = biological target: T1, human LAG3 expressed on HEK293 cells; experiment: electrochemiluminescence cell binding
Experimental: To investigate the ability of a panel of anti-LAG3 monoclonal antibodies to bind cell-surface expressed LAG3, an in vitro binding assay utilizing human and monkey LAG3 expressing cell lines in an electrochemiluminescence based detection platform [Meso Scale Diagnostics, Rockville, Md.—(MSD)] was developed.
Experiments were carried out according to following procedure. Cells from the three cell lines described above were rinsed once in 1×PBS buffer without Ca²⁺/Mg²⁺ followed by 10-minute incubation at 37° C. with Enzyme Free Cell Dissociation Solution. […] Approximately 10,000 cells per well in the cell-washing buffer were seeded into the 96-well carbon electrode plates (MULTI-ARRAY high bind plate, MSD) and incubated for 1 hour at 37° C. to allow the cells to adhere. Nonspecific binding sites were blocked by 2% BSA (w/v) in PBS for 1 hour at room temperature. […] The plates were then washed to remove the unbound antibodies using an AquaMax2000 plate washer (MDS Analytical Technologies). The plate-bound antibodies were detected with a SULFO-TAG™-conjugated anti-human IgG antibody (MSD) for 1 hour at room temperature. After washes, the plates were developed with the Read Buffer (MSD) according to manufacturer's recommended procedure and the luminescent signals were recorded with a SECTOR Imager 6000 (MSD) instrument. The direct binding signals (in relative light units—RLU) were analyzed as a function of the antibody concentration and the data were fitted with a sigmoidal (four-parameter logistic) dose-response model using Graph Pad Prism™ software. The potency of each antibody was determined by calculating EC₅₀.

[2] = biological target: T2, recombinant human LAG3 expressed with a …; experiment: SPR, mAb captured, 37 C
Experimental: (§1) The BiaCore sensor surface was derivatized with either a polyclonal rabbit anti-mouse antibody (GE, # BR-1008-38) or with a monoclonal mouse anti-human Fc antibody (GE, # BR-1008-39) to capture approximately 50-85 RUs of anti-LAG3 monoclonal antibodies, expressed with either a mouse Fc or a human Fc, respectively. […] The binding of the LAG3 reagents to captured monoclonal antibodies was monitored for 4 minutes while their dissociation from the antibodies was monitored for 8 minutes in HBST running buffer (0.01 M HEPES pH 7.4, 0.15 M NaCl, 3 mM EDTA, 0.05% v/v Surfactant P20). Experiments were performed at 25° C. and 37° C. Kinetic association (kₐ) and dissociation (kd) rate constants were determined by processing and fitting the data to a 1:1 binding model using Scrubber 2.0c curve fitting software. Binding dissociation equilibrium constants (KD) and dissociative half-lives (t_{1/2}) were then calculated from the kinetic rate constants as: KD (M)=kd/kₐ and t_{1/2} (min)=[ln2/(60*kd)].

[3] = biological target: T3, recombinant human LAG3 expressed with a C-terminal myc-myc-hexahistidine tag (human, UniProt P18627 29-450); experiment: SPR, mAb captured, 37 C
T3 construct: also called hLAG3-mmh; hLAG3.mmh
Experimental: as §1

[4] = biological target: T2, recombinant human LAG3 expressed with a …; experiment: SPR, mAb captured, 25 C
Experimental: as §1

[5] = biological target: T3, recombinant human LAG3 expressed with a …; experiment: SPR, mAb captured, 25 C
Experimental: as §1

Binder	Ratio of 100 nM antibody binding HEK293-hLAG3 to HEK293 cells [1]	Kd [2] [pM]	koff [2] [s⁻¹]	kon [2] [M⁻¹ s⁻¹]	t1/2 [2] [h]	Kd [3] [pM]	koff [3] [s⁻¹]	kon [3] [M⁻¹ s⁻¹]	t1/2 [3] [h]	Kd [4] [pM]	koff [4] [s⁻¹]	kon [4] [M⁻¹ s⁻¹]	t1/2 [4] [h]	Kd [5] [pM]	koff [5] [s⁻¹]	kon [5] [M⁻¹ s⁻¹]	t1/2 [5] [h]
H4sH14813N (antibody, human IgG4 S228P, kappa, V domains shown, H4sH = modified human IgG4 Fc) VH: QVQLQQWGAGLLKPSETLSLTCAVYGGSFSGYYWNWIRQPPGKGLEWVGEISHRGSTNYNPSLKSRVTISLDTSKNQFSLKLTSVTAADTAVYYCSRDEELEFRFFDYWGQGTLVTVSS VL: EIVLTQSPATLSLSPGERATLSCRASQSVSSYLAWYQQKPGQAPRLLVYGASNRATGIPARFSGSGSGTDFTLTISSLEPEDFAFYYCQQRSNWPLTFGGGTKVEIKR	19.8	29.5	0.000101	3.42e+06	1.91	266	0.000154	578000	1.25	10.6	1.9e-05	1.8e+06	10.1	177	7.89e-05	445000	2.44
H4H15498P2 (antibody, human IgG4, V domains shown, H4H = human IgG4 Fc with S108P hinge mutation) VH: EVQLVESGGGLVQPGGSLRLSCAASGFTFTSYAMTWVRQAPGKGLEWVSDISGSGGRTYYADSVKGRFTISRDNSKNMLYLQMNILRAEDTAVYHCAKGTGQQVDLYNYYYALDVWGQGTTVTVSS VL: not shown	38.8	21.7	1e-05	460000	≥ 19.2	78.3	2.96e-05	381000	6.5	≤ 27.6	≤ 1e-05	363000	≥ 19.2	260	7.81e-05	301000	2.46
H4H15479P (antibody, human IgG4, V domains shown) VH: QVQLQQWGAGLLNPSETLSLTCAVYGGAFSDYYWNWIRQPPGKGLEWIGEINHRGSTNYNPSLKSRVTISVDTSKNQFSLRMSSVTAADAAVYYCARGEDYDIWNGYYQEKWGQGTLVTVSS VL: EIVLTQSPATLSLSPGERATLSCRASQSISTYLAWYQQKPGQAPRLLIYDASKRATGIPARFSGSGSGTDFTLTISSLEPEDFVVYYCHQRSNWPLTFGGGTKVEIK	20.1	3.99	1e-05	2.5e+06	≥ 19.2	32.1	4.08e-05	1.27e+06	4.72	≤ 4.35	≤ 1e-05	2.3e+06	≥ 19.2	49.3	5.35e-05	1.09e+06	3.6
H4H14813N (antibody, human IgG4, V domains shown, H4H = human IgG4 Fc with S108P hinge mutation) VH: QVQLQQWGAGLLKPSETLSLTCAVYGGSFSGYYWNWIRQPPGKGLEWVGEISHRGSTNYNPSLKSRVTISLDTSKNQFSLKLTSVTAADTAVYYCSRDEELEFRFFDYWGQGTLVTVSS VL: EIVLTQSPATLSLSPGERATLSCRASQSVSSYLAWYQQKPGQAPRLLVYGASNRATGIPARFSGSGSGTDFTLTISSLEPEDFAFYYCQQRSNWPLTFGGGTKVEIK	8.9	27.4	0.000117	4.27e+06	1.65	284	0.000152	535000	1.27	≤ 10.4	≤ 1e-05	958000	≥ 19.2	214	8.8e-05	411000	2.19

Further lines, results first:

Ratio of 100 nM antibody binding HEK293-hLAG3 to HEK293 cells [1]	Kd [2] [pM]	koff [2] [s⁻¹]	kon [2] [M⁻¹ s⁻¹]	t1/2 [2] [h]	Kd [3] [pM]	koff [3] [s⁻¹]	kon [3] [M⁻¹ s⁻¹]	t1/2 [3] [h]	Kd [4] [pM]	koff [4] [s⁻¹]	kon [4] [M⁻¹ s⁻¹]	t1/2 [4] [h]	Kd [5] [pM]	koff [5] [s⁻¹]	kon [5] [M⁻¹ s⁻¹]	t1/2 [5] [h]	Binder
99.8	19.4	1e-05	515000	≥ 19.2	185	7.08e-05	378000	2.72	≤ 35.2	≤ 1e-05	284000	≥ 19.2	645	0.000101	157000	1.9	H4sH15498P2 (antibody, V domains shown, H4sH = human IgG4 Fc with 2 or more amino acid changes as disclosed in US20140243504) VH: EVQLVESGGGLVQPGGSLRLSCAASGFTFTSYAMTWVRQAPGKGLEWVSDISGSGGRTYYADSVKGRFTISRDNSKNMLYLQMNILRAEDTAVYHCAKGTGQQVDLYNYYYALDVWGQGTTVTVSS VL: not shown
–	31.6	–	–	1.17	1820	–	–	0.377	≤ 14.1	–	–	≥ 19.2	1230	–	–	0.742	H4sH15482P (antibody, human IgG4 S228P, kappa, H4sH = modified human IgG4 Fc; also called mAb1) heavy: QVQLVESGGGVVQPGRSLRLSCVASGFTFSSYGMHWVRQAPGKGLEWVAIIWYDGSNKYYADSVKGRFTISRDNSKNTQYLQMNSLRAEDTAVYYCASVATSGDFDYYGMDVWGQGTTVTVSSASTKGPSVFPLAPCSRSTSESTAALGCLVKDYFPEPVTVSWNSGALTSGVHTFPAVLQSSGLYSLSSVVTVPSSSLGTKTYTCNVDHKPSNTKVDKRVESKYGPPCPPCPAPPVAGPSVFLFPPKPKDTLMISRTPEVTCVVVDVSQEDPEVQFNWYVDGVEVHNAKTKPREEQFNSTYRVVSVLTVLHQDWLNGKEYKCKVSNKGLPSSIEKTISKAKGQPREPQVYTLPPSQEEMTKNQVSLTCLVKGFYPSDIAVEWESNGQPENNYKTTPPVLDSDGSFFLYSRLTVDKSRWQEGNVFSCSVMHEALHNHYTQKSLSLSLGK light: EIVLTQSPATLSLSPGERTTLSCRASQRISTYLAWYQQKPGQAPRLLIYDASKRATGIPARFSGSGSGTGFTLTISSLEPEDFAVYYCQQRSNWPLTFGGGTKVEIKRTVAAPSVFIFPPSDEQLKSGTASVVCLLNNFYPREAKVQWKVDNALQSGNSQESVTEQDSKDSTYSLSSTLTLSKADYEKHKVYACEVTHQGLSSPVTKSFNRGEC
–	89.1	–	–	2.13	1960	–	–	0.337	≤ 13.2	–	–	≥ 19.2	972	–	–	0.995	H4H15482P (antibody, human IgG4 S228P, kappa, H4H = human IgG4 Fc with S108P) heavy: not shown light: EIVLTQSPATLSLSPGERTTLSCRASQRISTYLAWYQQKPGQAPRLLIYDASKRATGIPARFSGSGSGTGFTLTISSLEPEDFAVYYCQQRSNWPLTFGGGTKVEIKRTVAAPSVFIFPPSDEQLKSGTASVVCLLNNFYPREAKVQWKVDNALQSGNSQESVTEQDSKDSTYSLSSTLTLSKADYEKHKVYACEVTHQGLSSPVTKSFNRGEC
